According to paper PMC12259117 (bioRxiv, 2025):

Target: the molecule itself
Assay: SEC-MALS

Binder | stoichiometry N | binding result
BsParB(A232G), full length (natural protein) MAKGLGKGINALFNQVDLSEETVEEIKIADLRPNPYQPRKHFDDEALAELKESVLQHGILQPLIVRKSLKGYDIVAGERRFRAAKLAGLDTVPAIVRELSEALMREIALLENLQREDLSPLEEAQAYDSLLKHLDLTQEQLAKRLGKSRPHIANHLRLLTLPENIQQLIAEGTLSMGHGRTLLGLKNKNKLEPLVQKVIAEQLNVRQLEQLIQQLNQNVPRETKKKEPVKDGVLKERESYLQNYFGTTVNIKRQKKKGKIEIEFFSNEDLDRILELLSERES | 2 | 
BsParB(K252A), full length (natural protein) MAKGLGKGINALFNQVDLSEETVEEIKIADLRPNPYQPRKHFDDEALAELKESVLQHGILQPLIVRKSLKGYDIVAGERRFRAAKLAGLDTVPAIVRELSEALMREIALLENLQREDLSPLEEAQAYDSLLKHLDLTQEQLAKRLGKSRPHIANHLRLLTLPENIQQLIAEGTLSMGHGRTLLGLKNKNKLEPLVQKVIAEQLNVRQLEQLIQQLNQNVPRETKKKEPVKDAVLKERESYLQNYFGTTVNIARQKKKGKIEIEFFSNEDLDRILELLSERES | 2 | 
BsParB(K255A), full length (natural protein) MAKGLGKGINALFNQVDLSEETVEEIKIADLRPNPYQPRKHFDDEALAELKESVLQHGILQPLIVRKSLKGYDIVAGERRFRAAKLAGLDTVPAIVRELSEALMREIALLENLQREDLSPLEEAQAYDSLLKHLDLTQEQLAKRLGKSRPHIANHLRLLTLPENIQQLIAEGTLSMGHGRTLLGLKNKNKLEPLVQKVIAEQLNVRQLEQLIQQLNQNVPRETKKKEPVKDAVLKERESYLQNYFGTTVNIKRQAKKGKIEIEFFSNEDLDRILELLSERES | 2 | 
BsParB(K256A), full length (natural protein) MAKGLGKGINALFNQVDLSEETVEEIKIADLRPNPYQPRKHFDDEALAELKESVLQHGILQPLIVRKSLKGYDIVAGERRFRAAKLAGLDTVPAIVRELSEALMREIALLENLQREDLSPLEEAQAYDSLLKHLDLTQEQLAKRLGKSRPHIANHLRLLTLPENIQQLIAEGTLSMGHGRTLLGLKNKNKLEPLVQKVIAEQLNVRQLEQLIQQLNQNVPRETKKKEPVKDAVLKERESYLQNYFGTTVNIKRQKAKGKIEIEFFSNEDLDRILELLSERES | 2 | 
BsParB(K257A), full length (natural protein) MAKGLGKGINALFNQVDLSEETVEEIKIADLRPNPYQPRKHFDDEALAELKESVLQHGILQPLIVRKSLKGYDIVAGERRFRAAKLAGLDTVPAIVRELSEALMREIALLENLQREDLSPLEEAQAYDSLLKHLDLTQEQLAKRLGKSRPHIANHLRLLTLPENIQQLIAEGTLSMGHGRTLLGLKNKNKLEPLVQKVIAEQLNVRQLEQLIQQLNQNVPRETKKKEPVKDAVLKERESYLQNYFGTTVNIKRQKKAGKIEIEFFSNEDLDRILELLSERES | 2 | 
BsParB(K259A), full length (natural protein) MAKGLGKGINALFNQVDLSEETVEEIKIADLRPNPYQPRKHFDDEALAELKESVLQHGILQPLIVRKSLKGYDIVAGERRFRAAKLAGLDTVPAIVRELSEALMREIALLENLQREDLSPLEEAQAYDSLLKHLDLTQEQLAKRLGKSRPHIANHLRLLTLPENIQQLIAEGTLSMGHGRTLLGLKNKNKLEPLVQKVIAEQLNVRQLEQLIQQLNQNVPRETKKKEPVKDAVLKERESYLQNYFGTTVNIKRQKKKGAIEIEFFSNEDLDRILELLSERES | 2 | 
BsParB(K252A-K259A) (natural protein) MAKGLGKGINALFNQVDLSEETVEEIKIADLRPNPYQPRKHFDDEALAELKESVLQHGILQPLIVRKSLKGYDIVAGERRFRAAKLAGLDTVPAIVRELSEALMREIALLENLQREDLSPLEEAQAYDSLLKHLDLTQEQLAKRLGKSRPHIANHLRLLTLPENIQQLIAEGTLSMGHGRTLLGLKNKNKLEPLVQKVIAEQLNVRQLEQLIQQLNQNVPRETKKKEPVKDAVLKERESYLQNYFGTTVNIARQKKKGAIEIEFFSNEDLDRILELLSERES |  | binds
BsParB(K252A-K255A-K259A) (natural protein) MAKGLGKGINALFNQVDLSEETVEEIKIADLRPNPYQPRKHFDDEALAELKESVLQHGILQPLIVRKSLKGYDIVAGERRFRAAKLAGLDTVPAIVRELSEALMREIALLENLQREDLSPLEEAQAYDSLLKHLDLTQEQLAKRLGKSRPHIANHLRLLTLPENIQQLIAEGTLSMGHGRTLLGLKNKNKLEPLVQKVIAEQLNVRQLEQLIQQLNQNVPRETKKKEPVKDAVLKERESYLQNYFGTTVNIARQAKKGAIEIEFFSNEDLDRILELLSERES |  | binds

target: T1, ParB CTD (Bacillus subtilis, UniProt P26497 217-282); assay: NMR
T1 sequence: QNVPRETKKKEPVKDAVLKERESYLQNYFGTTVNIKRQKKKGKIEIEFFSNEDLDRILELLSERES

Binder | binding result
GCGTACATCATTCCCTGATGTACGC (structured_DNA) [10-bp hairpin DNA] | binds
